This is an account of results in PMC3382428.

Test [1] deals with gp130 on Ba/F3-gp130 cells (UniProt P40189).
Test [2] deals with gp130 on human cord blood Lin-CD34+ cells (human (endogenous in cord blood Lin-CD34+ cells)) (UniProt P40189).
In the next test the target is IL-6R (Homo sapiens) (UniProt P08887). The note with it: cited from earlier work.
Chain of IL-6R (Homo sapiens) (P08887 20-355): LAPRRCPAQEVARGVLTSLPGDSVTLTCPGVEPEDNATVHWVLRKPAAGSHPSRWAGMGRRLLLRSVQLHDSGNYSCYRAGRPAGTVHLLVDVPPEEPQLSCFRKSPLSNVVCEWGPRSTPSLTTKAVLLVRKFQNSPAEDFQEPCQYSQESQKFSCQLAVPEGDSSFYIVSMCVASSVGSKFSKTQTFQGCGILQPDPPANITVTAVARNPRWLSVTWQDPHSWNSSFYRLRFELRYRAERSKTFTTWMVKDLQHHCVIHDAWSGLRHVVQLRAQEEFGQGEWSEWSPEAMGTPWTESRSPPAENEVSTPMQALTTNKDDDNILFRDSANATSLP

Chain of gp130 on Ba/F3-gp130 cells (P40189 23-918): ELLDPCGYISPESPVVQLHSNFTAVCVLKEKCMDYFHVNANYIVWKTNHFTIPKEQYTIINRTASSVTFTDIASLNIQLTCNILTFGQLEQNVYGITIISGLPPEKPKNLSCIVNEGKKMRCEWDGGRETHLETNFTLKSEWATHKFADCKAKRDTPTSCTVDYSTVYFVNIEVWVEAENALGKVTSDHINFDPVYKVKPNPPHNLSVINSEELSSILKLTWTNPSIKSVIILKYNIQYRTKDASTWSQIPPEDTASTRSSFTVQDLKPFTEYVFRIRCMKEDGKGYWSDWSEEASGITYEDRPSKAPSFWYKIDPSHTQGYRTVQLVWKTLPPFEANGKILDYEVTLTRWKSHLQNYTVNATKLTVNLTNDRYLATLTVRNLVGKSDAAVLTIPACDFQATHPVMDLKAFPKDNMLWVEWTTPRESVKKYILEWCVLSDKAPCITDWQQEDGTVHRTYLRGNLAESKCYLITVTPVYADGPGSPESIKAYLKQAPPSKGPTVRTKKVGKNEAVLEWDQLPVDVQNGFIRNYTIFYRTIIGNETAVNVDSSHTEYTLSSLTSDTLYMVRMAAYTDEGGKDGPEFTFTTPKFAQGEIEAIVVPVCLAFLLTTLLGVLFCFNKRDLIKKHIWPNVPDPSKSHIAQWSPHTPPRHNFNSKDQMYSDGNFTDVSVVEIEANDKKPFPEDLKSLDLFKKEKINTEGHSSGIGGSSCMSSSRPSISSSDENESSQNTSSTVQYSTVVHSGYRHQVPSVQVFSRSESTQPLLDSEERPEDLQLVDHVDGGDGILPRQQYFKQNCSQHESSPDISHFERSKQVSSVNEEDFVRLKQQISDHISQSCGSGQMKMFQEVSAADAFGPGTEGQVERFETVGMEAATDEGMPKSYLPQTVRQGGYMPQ
Chain of IL-6 (P05231 30-212): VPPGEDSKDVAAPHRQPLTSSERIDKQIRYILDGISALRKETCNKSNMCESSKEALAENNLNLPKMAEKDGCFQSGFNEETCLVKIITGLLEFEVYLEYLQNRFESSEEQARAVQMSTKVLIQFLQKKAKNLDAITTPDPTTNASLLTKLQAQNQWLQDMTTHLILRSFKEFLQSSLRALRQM
Chain of gp130 on human cord blood Lin-CD34+ cells (human (endogenous in cord blood Lin-CD34+ cells)) (P40189 23-918): as the sequence (P40189 23-918) above

As to “Hyper IL-11 (H11) (from UniProt Q14626 23-365; P20809 19-199)”, in test [1], the proliferation of Ba/F3-gp130 cells (MTT, 72 h): dose of H11 for half-maximum proliferation was 800 to 900 pM. Moreover, the CD235a+ (erythroid) cells in Lin-CD34+ liquid culture with 50 ng/ml H11, day 14, flow cytometry (27% with Hyper-IL-6, 20% in control culture) in test [2] amounted to 39%.

As to IL-6 (from UniProt P05231), the Kd (commonly the free concentration of one partner at which half of the binding sites on the other are occupied at equilibrium, for simple one-to-one binding) in the test with IL-6R (Homo sapiens) is 1 nM.
